{"source": "patent US20240374744", "proteins": {"B1": {"name": "cathepsin H (enzyme, UniProt P09668 116-335, looked up, species assumed)", "Cathepsin H": "YPPSVDWRKKGNFVSPVKNQGACGSCWTFSTTGALESAIAIATGKMLSLAEQQLVDCAQDFNNHGCQGGLPSQAFEYILYNKGIMGEDTYPYQGKDGYCKFQPGKAIGFVKDVANITIYDEEAMVEAVALYNPVSFAFEVTQDFMMYRTGIYSSTSCHKTPDKVNHAVLAVGYGEKNGIPYWIVKNSWGPQWGMNGYFLIERGKNMCGLAACASYPIPLV"}, "B2": {"name": "PrCP (prolylcarboxypeptidase) (enzyme, UniProt P42785 46-496, looked up, species assumed)", "Lysosomal Pro-X carboxypeptidase": "KNYSVLYFQQKVDHFGFNTVKTFNQRYLVADKYWKKNGGSILFYTGNEGDIIWFCNNTGFMWDVAEELKAMLVFAEHRYYGESLPFGDNSFKDSRHLNFLTSEQALADFAELIKHLKRTIPGAENQPVIAIGGSYGGMLAAWFRMKYPHMVVGALAASAPIWQFEDLVPCGVFMKIVTTDFRKSGPHCSESIHRSWDAINRLSNTGSGLQWLTGALHLCSPLTSQDIQHLKDWISETWVNLAMVDYPYASNFLQPLPAWPIKVVCQYLKNPNVSDSLLLQNIFQALNVYYNYSGQVKCLNISETATSSLGTLGWSYQACTEVVMPFCTNGVDDMFEPHSWNLKELSDDCFQQWGVRPRPSWITTMYGGKNISSHTNIVFSNGELDPWSGGGVTKDITDTLVAVTISEGAHHLDLRTKNALDPMSVLLARSLEVRHMKNWIRDFYDSAGKQH"}}, "system": "huHF(+)-DOX (huHF(+) protein nanoparticle-doxorubicin conjugate)", "sequence (chain, as listed by the source)": "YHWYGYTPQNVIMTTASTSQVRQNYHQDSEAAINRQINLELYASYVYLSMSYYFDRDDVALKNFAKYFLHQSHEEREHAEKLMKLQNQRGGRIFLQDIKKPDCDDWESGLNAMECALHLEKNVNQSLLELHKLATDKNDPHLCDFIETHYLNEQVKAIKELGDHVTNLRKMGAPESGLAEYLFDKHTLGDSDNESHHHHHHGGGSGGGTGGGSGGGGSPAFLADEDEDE", "data": [{"protein": "B1", "values": [{"measurement": "cleavage of the conjugate and release of doxorubicin (native-PAGE, UV absorbance), enzyme in LPM mixture", "result": "it was observed that the peptide was not specifically cleaved thereby the drug was not selectively released"}]}, {"protein": "B2", "values": [{"measurement": "cleavage of the conjugate and release of doxorubicin (native-PAGE, UV absorbance), enzyme in LPM mixture", "result": "it was observed that the peptide was not specifically cleaved thereby the drug was not selectively released"}]}]}
